Experimental data: patent US20260137822A1 (ABDERA THERAPEUTICS, published 2026)
Each block holds one binder with its values, some of them ahead of it.

Tests used:
[1] = molecular target: T1, DLL3 on cells (SHP-77, NCI-H82, HEK-DLL3) (UniProt Q9NYJ7 27-618); assay: flow cytometry, SHP-77 cells
T1 construct: whole, on cells; also called DLL3-positive cell lines
T1 sequence (looked up): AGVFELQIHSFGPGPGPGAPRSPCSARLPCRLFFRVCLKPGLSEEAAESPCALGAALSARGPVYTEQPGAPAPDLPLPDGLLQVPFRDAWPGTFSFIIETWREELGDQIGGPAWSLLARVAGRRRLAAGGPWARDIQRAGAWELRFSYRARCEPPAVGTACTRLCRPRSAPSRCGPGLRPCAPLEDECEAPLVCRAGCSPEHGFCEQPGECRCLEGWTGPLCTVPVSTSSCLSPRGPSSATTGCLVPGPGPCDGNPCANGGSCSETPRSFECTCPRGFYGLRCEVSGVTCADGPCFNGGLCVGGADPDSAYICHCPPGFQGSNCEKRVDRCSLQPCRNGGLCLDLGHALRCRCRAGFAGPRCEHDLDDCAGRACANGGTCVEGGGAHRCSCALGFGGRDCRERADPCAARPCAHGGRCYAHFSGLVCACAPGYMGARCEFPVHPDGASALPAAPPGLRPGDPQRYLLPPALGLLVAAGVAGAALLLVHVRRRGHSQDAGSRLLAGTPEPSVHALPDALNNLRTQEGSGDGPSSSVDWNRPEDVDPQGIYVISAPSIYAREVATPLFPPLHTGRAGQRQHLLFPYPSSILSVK

[2] = molecular target: T1, DLL3 on cells (SHP-77, NCI-H82, …); assay: flow cytometry, HEK-DLL3 cells
[3] = molecular target: T2, human DLL3.FLAG (Adipogen #AG-40B-0151, amino acid 27-466) (human, UniProt Q9NYJ7 27-466); assay: ELISA on coated hDLL3-Flag, A450nm against nM antibody
T2 construct: range 27-466; Carries a FLAG tag
T2 sequence (looked up): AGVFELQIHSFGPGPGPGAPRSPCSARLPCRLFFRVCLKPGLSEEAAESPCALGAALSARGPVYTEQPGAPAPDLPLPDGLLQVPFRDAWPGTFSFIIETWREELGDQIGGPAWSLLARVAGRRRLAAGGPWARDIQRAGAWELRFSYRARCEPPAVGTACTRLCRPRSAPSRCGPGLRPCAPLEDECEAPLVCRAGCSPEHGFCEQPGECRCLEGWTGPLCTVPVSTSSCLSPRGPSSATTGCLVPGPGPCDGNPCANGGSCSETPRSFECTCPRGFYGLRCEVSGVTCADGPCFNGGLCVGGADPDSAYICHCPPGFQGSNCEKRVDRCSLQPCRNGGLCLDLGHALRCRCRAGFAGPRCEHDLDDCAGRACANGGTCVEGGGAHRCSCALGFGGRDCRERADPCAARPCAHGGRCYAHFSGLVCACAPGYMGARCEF

[4] = molecular target: T1, DLL3 on cells (SHP-77, NCI-H82, …); assay: flow cytometry on SHP-77 cells (DLL3-positive), MFI against nM antibody
[5] = molecular target: T3, human FOLR1 (recombinant antigen) (human, UniProt P15328 25-234, limits assumed); assay: ELISA on hFOLR1
T3 construct: also called hFOLR1

[6] = molecular target: T4, mouse FOLR1 (recombinant antigen) (mouse, UniProt P35846 25-232, limits assumed); assay: ELISA on mFOLR1
T4 construct: also called mFOLR1

[7] = molecular target: T5, human DLL3 (recombinant antigen) (human, UniProt Q9NYJ7 27-492, limits assumed); assay: BLI (Octet), VHH-Fc captured on AHC biosensor, hDLL3 as analyte
T5 construct: also called hDLL3
T5 sequence (looked up): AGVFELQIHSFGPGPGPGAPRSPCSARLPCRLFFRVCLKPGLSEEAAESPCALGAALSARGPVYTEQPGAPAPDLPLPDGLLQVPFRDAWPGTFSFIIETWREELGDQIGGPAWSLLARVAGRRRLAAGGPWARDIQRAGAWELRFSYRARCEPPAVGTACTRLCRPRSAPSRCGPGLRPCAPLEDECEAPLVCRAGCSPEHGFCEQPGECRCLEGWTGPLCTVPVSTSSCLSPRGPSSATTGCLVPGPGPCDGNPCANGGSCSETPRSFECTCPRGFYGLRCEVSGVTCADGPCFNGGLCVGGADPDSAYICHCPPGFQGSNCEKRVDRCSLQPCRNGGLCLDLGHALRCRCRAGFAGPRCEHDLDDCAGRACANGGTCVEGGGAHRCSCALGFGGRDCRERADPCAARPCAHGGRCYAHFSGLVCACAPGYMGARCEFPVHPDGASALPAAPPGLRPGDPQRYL

[8] = molecular target: T6, mouse DLL3 (recombinant antigen) (mouse, UniProt O88516 25-477, limits assumed); assay: BLI (Octet), VHH-Fc captured on AHC biosensor, mDLL3 as analyte
T6 construct: also called mDLL3
T6 sequence (looked up): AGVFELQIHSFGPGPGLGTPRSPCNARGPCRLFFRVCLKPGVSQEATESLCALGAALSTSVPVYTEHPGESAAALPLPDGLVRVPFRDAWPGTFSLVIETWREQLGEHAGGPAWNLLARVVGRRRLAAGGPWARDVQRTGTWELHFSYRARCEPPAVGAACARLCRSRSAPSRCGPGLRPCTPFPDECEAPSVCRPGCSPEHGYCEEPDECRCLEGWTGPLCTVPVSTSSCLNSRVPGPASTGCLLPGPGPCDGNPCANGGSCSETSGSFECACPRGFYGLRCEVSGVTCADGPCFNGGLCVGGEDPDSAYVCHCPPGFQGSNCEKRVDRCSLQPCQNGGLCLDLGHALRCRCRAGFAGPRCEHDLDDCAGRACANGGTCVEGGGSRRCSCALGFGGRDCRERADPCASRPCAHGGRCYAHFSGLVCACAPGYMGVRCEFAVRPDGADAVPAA

[9] = molecular target: T7, FOLR1 on cells (OVCAR3, OV-90) (UniProt P15328 25-234); assay: flow cytometry on FOLR1 expressing OV-90 cells, Geomeans RL1-H against Conc (nM) [top panel]
T7 construct: whole, on cells; also called FOLR1-positive OVCAR3 cells; FOLR1 expressing OV-90 cells

[10] = molecular target: T7, FOLR1 on cells (OVCAR3, OV-90); assay: flow cytometry on FOLR1 expressing OV-90 cells, Geomeans RL1-H against Conc (nM) [bottom panel]

T7 sequence (P15328 25-234): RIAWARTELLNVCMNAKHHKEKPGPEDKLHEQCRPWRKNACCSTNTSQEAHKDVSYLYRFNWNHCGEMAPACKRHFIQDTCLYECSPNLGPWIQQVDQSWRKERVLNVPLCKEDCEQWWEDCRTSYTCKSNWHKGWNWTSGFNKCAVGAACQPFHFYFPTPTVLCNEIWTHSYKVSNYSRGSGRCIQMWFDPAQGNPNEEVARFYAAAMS
T3 sequence (P15328 25-234 limits assumed): as the sequence (P15328 25-234) above
T4 sequence (P35846 25-232 limits assumed): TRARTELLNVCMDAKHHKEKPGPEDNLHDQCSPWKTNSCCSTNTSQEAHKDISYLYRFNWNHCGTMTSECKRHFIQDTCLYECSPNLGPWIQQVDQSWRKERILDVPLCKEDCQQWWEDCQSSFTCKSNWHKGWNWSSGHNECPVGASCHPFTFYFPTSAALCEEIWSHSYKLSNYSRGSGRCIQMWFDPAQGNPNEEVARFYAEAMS

EC50 [1]: 0.11 nM | EC50 [2]: 0.06 nM | EC50 (read off the curve) [3]: ~0.09 nM | EC50 (read off the curve) [4]: ~0.1 nM
B1: Rovalpituzumab (Creative Biolabs #TAB-216CL) (antibody, V domains shown)
VH: QVQLVQSGAEVKKPGASVKVSCKASGYTFTNYGMNWVRQAPGQGLEWMGWINTYTGEPTYADDFKGRVTMTTDTSTSTAYMELRSLRSDDTAVYYCARIGDSSPSDYWGQGTLVTVSS
VL: EIVMTQSPATLSVSPGERATLSCKASQSVSNDVVWYQQKPGQAPRLLIYYASNRYTGIPARFSGSGSGTEFTLTISSLQSEDFAVYYCQQDYTSPWTFGQGTKLEIK

binding result [5]: no binding | binding result [6]: no binding | Kd [7]: 2.29 nM | koff [7]: 0.000379 s⁻¹ | kon [7]: 166000 M⁻¹ s⁻¹ | koff [8]: 0.000267 s⁻¹ | kon [8]: 215000 M⁻¹ s⁻¹ | binding result [9]: no binding (tested: 200 nM)
B2: DLL3 VHH (VHH-Fc control) (Fc fusion, not shown: a dimerising Fc or GST)
chain: EVQLVESGGGEVQPGGSLRLSCAASGSIFSINAMGWYRQAPGKQRELVAGFTGDTNTIYAESVKGRFTISRDNAKNTVYLQMSSLRAEDTAVYYCAADVQLFSRDYEFYWGQGTLVTVKP

EC50 (read off the curve) [10]: ~3 nM
B3: bispecific anti-h/mFOLR1/h/mDLL3 (GGS)3 tetramer, p-SCN-Bn-DOTA conjugate (bispecific antibody)
chain (part 1 of 2): QVQLVESGGGLVQPGGSLRLSCAASGFTVSNSVMAWYRQTPGNEREFVAIINSIGITNYADSVKGRFTISRDNSKNTLYLQMNSLRAEDTAVYVCNRNFDRIYWGQGTLVTVSSGGSGGSGGSEVQLVESGGGEVQPGGSLRLSCAASGSIFSINAMGWYRQAPGKQRELVAGFTGDTNTIYAESVKGRFTISRDNAKNTVYLQMSSLRAEDTAVYYCAADVQLFSRDYEFYWGQGTLVTVKP
chain (part 2 of 2): not shown
modifications: conjugated with p-SCN-Bn-DOTA
notes: Chelator conjugate of m63; not shown: hinge
